According to paper doi:10.1101/2024.10.23.619877:

Target: 20S proteasome (human housekeeping 20S core) (human) (UniProt P60900)
Test: AFM imaging with morphometric analysis of single particles

Sequence of UniProt P60900 (P60900 whole entry, looked up): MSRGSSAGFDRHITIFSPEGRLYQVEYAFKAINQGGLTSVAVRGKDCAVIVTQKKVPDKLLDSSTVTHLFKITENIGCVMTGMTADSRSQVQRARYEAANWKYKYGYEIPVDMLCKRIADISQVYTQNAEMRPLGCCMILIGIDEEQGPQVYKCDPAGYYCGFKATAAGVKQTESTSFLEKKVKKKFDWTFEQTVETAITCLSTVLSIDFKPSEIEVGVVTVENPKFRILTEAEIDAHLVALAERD

percent of particles that are 26S proteasomes (with 2 µM Aβ42 oligomers): 52.9%
percent of particles that are 26S proteasomes (without Aβ): 75.8%
Substance: 19S regulatory particle (complex)
